“And” between values parts separate entries of the source, which are not always exact repeats. Equal values may be shown once.
B1: anti-TRAP from Bacillus licheniformis (natural protein, UniProt Q65NU7 1-53, looked up)
chain: MVIATDDLETTCPNCNGSGREEPEPCPKCSGKGVILTAQGSTLLHFIKKHLNE
B2: thioredoxin peroxidase B from human erythrocytes (enzyme, UniProt P32119 1-198, looked up)
chain: MASGNARIGKPAPDFKATAVVDGAFKEVKLSDYKGKYVVLFFYPLDFTFVCPTEIIAFSNRAEDFRKLGCEVLGVSVDSQFTHLAWINTPRKEGGLGPLNIPLLADVTRRLSEDYGVLKTDEGIAYRGLFIIDGKGVLRQITVNDLPVGRSVDEALRLVQAFQYTDEHGEVCPAGWKPGSDTIKPNVDDSKEYFSKHN

Assays:
crystal structure [1] = molecular target: the molecule itself; assay: crystal structure
crystal structure [2] = molecular target: the molecule itself; assay: crystal structure; remark: listed apart in the source
AUC + SEC = molecular target: the molecule itself; assay: AUC + SEC

Protein	stoichiometry N (crystal structure [1])	stoichiometry N (crystal structure [2])	stoichiometry N (AUC + SEC)
B1	12	–	–
B2	–	10	8 and 12
